From US8216580B2, “Sulfatases and methods of use thereof” (The Regents of the University of California, priority 2000, dated 2012)

Key:
[1] = comparison enzymes; cited from earlier work
[2] = Arylsulfatase activity assay with 4-MUS substrate; assay type: biochemical; details: 1 milliunit, 24 hr incubation
Method: The 100-fold concentrated conditioned medium (CM) derived from each transfection of CHO cells as described above was dialyzed into 50 mM HEPES, pH 8.0. The His-tagged fusion proteins were bound to a Ni-NTA resin (QIAGEN) by rotation at 4° C. over night, then washed with 50 mM HEPES (pH 8.0), 3 times. 250 mM imidazole in 50 mM HEPES, pH 8.0 was used to elute the His-tagged fusion proteins from Ni-NTA. The resins with boud material or the eluates were mixed with 10 mM 4-methylumbelliferyl-sulfate (4-MUS; a substrate for sulfatases), and 10 mM lead acetate, in a total volume of 100 μl. The reaction mixtures were incubated at 37° C. for various periods of time. Reactions were terminated by the addition of 100 μl of 0.5 M Na2CO3/NaHCO3, pH 10.7 to 20 μl of the reaction mixture. The fluorescence of 4-methylumbelliferone was measured on a Multi-Well Plate Reader CytoFluorII (PerSeptive Biosystems). The fluorescence was determined at an excitation wavelength of 360 nm and emission wavelength of 460 nm. A substrate dose response curve was performed over the concentration range of 1 to 10 mM 4-MUS.
The synthetic fluorogenic compound 4-methylumbelliferyl sulfate (4-MUS) serves as a substrate for most sulfatases, both in the lysosomal and non-lysosomal classes. CHO cells were transfected with a cDNA for HSulf-1 or HSulf-2 or a vector control. Conditioned medium was collected and incubated with nickel resin (Ni-NTA) to bind the His-tagged recombinant proteins. The bead-bound material was assayed for activity on 4-MUS. For both enzymes, hydrolysis depended on time of reaction (FIG. 15A), concentration of substrate (FIG. 15B), and amount of CM (FIG. 15C). From the substrate dose-response curves of FIG. 15B and based on estimates of Sulf protein levels in CM, we approximated Vmax for the two Sulfs to be in the range of 1000-2000 nmol per min per mg of Sulf protein. Human glucosamine-6-sulfatase has a considerably lower Vmax against 4-MUS ([…]) whereas the Vmax of human N-acetylgalactosamine-4-sulfatase (arylsulfatase B) is much higher (48000).
HSulf-1, HSulf-2 or their mutated forms (HSulf-1 ΔCC and HSulf-2 ΔCC) was purified from the conditioned medium of transfected CHO cells by binding to Ni-NTA beads. A) The bead-bound material was tested for arylsulfatase activity as a function of time against 10 mM 4-MUS substrate at pH 8. The “no-enzyme” control was based on testing conditioned medium from vector-control transfected CHO cells. No activity was detected in the absence of added substrate (not shown). […] The activity of each Sulf was determined relative to that of beads exposed to an equivalent volume of vector-control conditioned medium. The activity of HG6S was determined (24 hr incubation) relative to that of the buffer. […]

human N-acetylgalactosamine-4-sulfatase: human N-acetylgalactosamine-4-sulfatase (arylsulfatase B), comparison enzyme [reference compound]
Vmax against 4-MUS [1]: 48000 nmol/min/mg

B1: Human glucosamine-6-sulfatase: human lysosomal glucosamine-6-sulfatase, purchased from Glyko Inc. (protein, UniProt P15586 37-552, looked up)
N-acetylglucosamine-6-sulfatas …: VFGVAAGTRRPNVVLLLTDDQDEVLGGMTPLKKTKALIGEMGMTFSSAYVPSALCCPSRASILTGKYPHNHHVVNNTLEGNCSSKSWQKIQEPNTFPAILRSMCGYQTFFAGKYLNEYGAPDAGGLEHVPLGWSYWYALEKNSKYYNYTLSINGKARKHGENYSVDYLTDVLANVSLDFLDYKSNFEPFFMMIATPAPHSPWTAAPQYQKAFQNVFAPRNKNFNIHGTNKHWLIRQAKTPMTNSSIQFLDNAFRKRWQTLLSVDDLVEKLVKRLEFTGELNNTYIFYTSDNGYHTGQFSLPIDKRQLYEFDIKVPLLVRGPGIKPNQTSKMLVANIDLGPTILDIAGYDLNKTQMDGMSLLPILRGASNLTWRSDVLVEYQGEGRNVTDPTCPSLSPGVSQCFPDCVCEDAYNNTYACVRTMSALWNLQYCEFDDQEVFVEVYNLTADPDQITNIAKTIDPELLGKMNYRLMMLQSCSGPTCRTPGVFDPGYRFDPRLMFSNRGSVRTRRFSKHLL
arylsulfatase activity at pH 5 ([2]; pH 5): measurable activity
arylsulfatase activity at pH 8 ([2]; pH 8): none
Vmax against 4-MUS [1]: 100 nmol/min/mg
